Biological target: T1, human PSMA (human, UniProt Q04609 44-750, limits assumed)
T1 construct: also called huPSMA; hPSMA
Assay: binding screen

T1 sequence (Q04609 44-750 limits assumed): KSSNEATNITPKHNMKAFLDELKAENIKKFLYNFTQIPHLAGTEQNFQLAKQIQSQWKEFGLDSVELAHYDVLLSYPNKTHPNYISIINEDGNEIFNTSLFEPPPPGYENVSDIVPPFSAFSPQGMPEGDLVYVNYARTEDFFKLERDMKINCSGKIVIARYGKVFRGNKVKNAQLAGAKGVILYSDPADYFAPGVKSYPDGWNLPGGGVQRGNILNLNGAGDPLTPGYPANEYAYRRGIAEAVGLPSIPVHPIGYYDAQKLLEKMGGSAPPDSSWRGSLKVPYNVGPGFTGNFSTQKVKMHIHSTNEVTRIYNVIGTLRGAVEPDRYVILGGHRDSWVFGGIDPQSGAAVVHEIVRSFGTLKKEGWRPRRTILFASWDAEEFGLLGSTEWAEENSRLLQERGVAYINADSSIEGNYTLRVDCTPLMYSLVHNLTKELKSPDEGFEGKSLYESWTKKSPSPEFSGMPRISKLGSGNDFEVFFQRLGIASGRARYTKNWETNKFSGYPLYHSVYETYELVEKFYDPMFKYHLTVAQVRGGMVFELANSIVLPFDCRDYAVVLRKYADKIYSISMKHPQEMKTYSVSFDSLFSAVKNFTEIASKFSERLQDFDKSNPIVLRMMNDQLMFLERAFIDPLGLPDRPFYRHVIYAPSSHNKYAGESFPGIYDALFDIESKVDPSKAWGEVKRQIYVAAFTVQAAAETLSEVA

| Kd | binding result | Binder |
| --- | --- | --- |
| 6.2 nM |  | PSMA.250 (bispecific antibody, V domains shown, TCE with CD3.23; also called AC3461) VH: QVQLVESGGGVVQPGRSLRLSCAASGRTFGIYVMGWYRQAPGKEREFVAAMSWSGSNRKVSDSVKGRFTISRDNSKNTLYLQMNSLRAEDTAVYYCAASNKLYGRTWYDFNESDYWGQGTQVTVSS |
| 15.9 nM |  | PSMA.252 (bispecific antibody, V domains shown, TCE with CD3.23; also called AC3463) VH: QVQLVESGGGVVQPGRSLRLSCAASGRTFGIYVMGWYRQAPGKEREFVAAMSWSGSNRKVSDSVKGRFTISRDNSKNTLYLQMNSLRAEDTAVYYCAASNRWYGRTWYDFNESDYWGQGTQVTVSS |
| 4.6 nM |  | PSMA.266 (bispecific antibody, V domains shown, TCE with CD3.23; also called AC3475) VH: QVQLVESGGGVVQPGRSLRLSCAASGRTFGIYVWGWVRQAPGKEREFVAAMSWSGSNRKVSDSVKGRFTISRDNSKNTLYLQMNSLRAEDTAVYYCAASNKLYGRTWYDFNESDYWGQGTQVTVSS |
| 16.6 nM |  | PSMA.273 (bispecific antibody, V domains shown, TCE with CD3.23; also called AC3482) VH: QVQLVESGGGVVQPGRSLRLSCAASGRTFGIYVFGWVRQAPGKEREFVAAMSWSGSNRKVSDSVKGRFTISRDNSKNTLYLQMNSLRAEDTAVYYCAASNRTYGRTWYDFNESDYWGQGTQVTVSS |
| 18.6 nM |  | PSMA.264 (bispecific antibody, V domains shown, TCE with CD3.23; also called AC3473) VH: QVQLVESGGGVVQPGRSLRLSCAASGRTFGIYAMGWVRQAPGKEREFVAAMSWSGSNRKVSDSVKGRFTISRDNSKNTLYLQMNSLRAEDTAVYYCAASNKLYGRTWYDFNESDYWGQGTQVTVSS |
| 6.5 nM |  | PSMA.270 (bispecific antibody, V domains shown, TCE with CD3.23; also called AC3479) VH: QVQLVESGGGVVQPGRSLRLSCAASGRTFGIYVWGWVRQAPGKEREFVGAISWSGSNRKVSDSVKGRFTISRDNSKNTLYLQMNSLRAEDTAVYYCAASNRTYGRTWYDFNESDYWGQGTQVTVSS |
| 3.9 nM |  | PSMA.265 (bispecific antibody, V domains shown, TCE with CD3.23; also called AC3474) VH: QVQLVESGGGVVQPGRSLRLSCAASGRTFGIYVFGWVRQAPGKEREFVAAMSWSGSNRKVSDSVKGRFTISRDNSKNTLYLQMNSLRAEDTAVYYCAASNKLYGRTWYDFNESDYWGQGTQVTVSS |
| 20.5 nM |  | PSMA.275 (bispecific antibody, V domains shown, TCE with CD3.23; also called AC3484) VH: QVQLVESGGGVVQPGRSLRLSCAASGRTFGIYVMGWFRQAPGKEREFVAAMSWSGSNRKVSDSVKGRFTISRDNSKNTLYLQMNSLRAEDTAVYYCAASNRTYGRTWYDFNESDYWGQGTQVTVSS |
| 8.5 nM |  | PSMA.253 (bispecific antibody, V domains shown, TCE with CD3.23; also called AC3464) VH: QVQLVESGGGVVQPGRSLRLSCAASGRTFGIYVMGWYRQAPGKEREFVAAISWSGSNRKVSDSVKGRFTISRDNSKNTLYLQMNSLRAEDTAVYYCAASNRWYGRTWYDFNESDYWGQGTQVTVSS |
| 5.3 nM |  | PSMA.281 (bispecific antibody, V domains shown, TCE with CD3.23; also called AC3490) VH: QVQLVESGGGVVQPGRSLRLSCAASGRTFGIYVFGWVRQAPGKEREFVAAMSWSGSNRKVSDSVKGRFTISRDNSKNTLYLQMNSLRAEDTAVYYCAASNRMYGRTWYDFNESDYWGQGTQVTVSS |
| 3.5 nM |  | PSMA.283 (bispecific antibody, V domains shown, TCE with CD3.23; also called AC3492) VH: QVQLVESGGGVVQPGRSLRLSCAASGRTFGIYVMGWFRQAPGKEREFVAAMSWSGSNRKVSDSVKGRFTISRDNSKNTLYLQMNSLRAEDTAVYYCAASNRMYGRTWYDFNESDYWGQGTQVTVSS |
| 41 nM |  | PSMA.254 (bispecific antibody, V domains shown, TCE with CD3.23; also called AC3465) VH: QVQLVESGGGVVQPGRSLRLSCAASGRTFGIYVMGWYRQAPGKEREFVAAMSWSGSNRKVSDSVKGRFTISRDNSKNTLYLQMNSLRAEDTAVYYCAASNRYYGRTWYDFNESDYWGQGTQVTVSS |
| 5.6 nM |  | PSMA.267 (bispecific antibody, V domains shown, TCE with CD3.23; also called AC3476) VH: QVQLVESGGGVVQPGRSLRLSCAASGRTFGIYVMGWFRQAPGKEREFVAAMSWSGSNRKVSDSVKGRFTISRDNSKNTLYLQMNSLRAEDTAVYYCAASNKLYGRTWYDFNESDYWGQGTQVTVSS |
| 8.7 nM |  | PSMA.282 (bispecific antibody, V domains shown, TCE with CD3.23; also called AC3491) VH: QVQLVESGGGVVQPGRSLRLSCAASGRTFGIYVWGWVRQAPGKEREFVAAMSWSGSNRKVSDSVKGRFTISRDNSKNTLYLQMNSLRAEDTAVYYCAASNRMYGRTWYDFNESDYWGQGTQVTVSS |
| 2.1 nM |  | PSMA.261 (bispecific antibody, V domains shown, TCE with CD3.23; also called AC3470) VH: QVQLVESGGGVVQPGRSLRLSCAASGRTFGIYVFGWVRQAPGKEREFVGAISWSGSNRKVSDSVKGRFTISRDNSKNTLYLQMNSLRAEDTAVYYCAASNKLYGRTWYDFNESDYWGQGTQVTVSS |
| 4.1 nM |  | PSMA.284 (bispecific antibody, V domains shown, TCE with CD3.23; also called AC3493) VH: QVQLVESGGGVVQPGRSLRLSCAASGRTFGIYAMGWVRQAPGKEREFVGAISWSGSNRKVSDSVKGRFTISRDNSKNTLYLQMNSLRAEDTAVYYCAASNRLYGRTWYDFNESDYWGQGTQVTVSS |
| 16.3 nM |  | PSMA.280 (bispecific antibody, V domains shown, TCE with CD3.23; also called AC3489) VH: QVQLVESGGGVVQPGRSLRLSCAASGRTFGIYAMGWVRQAPGKEREFVAAMSWSGSNRKVSDSVKGRFTISRDNSKNTLYLQMNSLRAEDTAVYYCAASNRMYGRTWYDFNESDYWGQGTQVTVSS |

| Kd | binding result | Binder |
| --- | --- | --- |
| 3.1 nM |  | PSMA.277 (bispecific antibody, V domains shown, TCE with CD3.23; also called AC3486) VH: QVQLVESGGGVVQPGRSLRLSCAASGRTFGIYVFGWVRQAPGKEREFVGAISWSGSNRKVSDSVKGRFTISRDNSKNTLYLQMNSLRAEDTAVYYCAASNRMYGRTWYDFNESDYWGQGTQVTVSS |
| 504 nM |  | PSMA.272 (bispecific antibody, V domains shown, TCE with CD3.23; also called AC3481) VH: QVQLVESGGGVVQPGRSLRLSCAASGRTFGIYAMGWVRQAPGKEREFVAAMSWSGSNRKVSDSVKGRFTISRDNSKNTLYLQMNSLRAEDTAVYYCAASNRTYGRTWYDFNESDYWGQGTQVTVSS |
| 18.9 nM |  | PSMA.255 (bispecific antibody, V domains shown, TCE with CD3.23; also called AC3466) VH: QVQLVESGGGVVQPGRSLRLSCAASGRTFGIYVMGWYRQAPGKEREFVAAISWSGSNRKVSDSVKGRFTISRDNSKNTLYLQMNSLRAEDTAVYYCAASNRYYGRTWYDFNESDYWGQGTQVTVSS |
| 10.5 nM |  | PSMA.276 (bispecific antibody, V domains shown, TCE with CD3.23; also called AC3485) VH: QVQLVESGGGVVQPGRSLRLSCAASGRTFGIYAMGWVRQAPGKEREFVGAISWSGSNRKVSDSVKGRFTISRDNSKNTLYLQMNSLRAEDTAVYYCAASNRMYGRTWYDFNESDYWGQGTQVTVSS |
| 5.1 nM |  | PSMA.251 (bispecific antibody, V domains shown, TCE with CD3.23; also called AC3462) VH: QVQLVESGGGVVQPGRSLRLSCAASGRTFGIYVMGWYRQAPGKEREFVAAISWSGSNRKVSDSVKGRFTISRDNSKNTLYLQMNSLRAEDTAVYYCAASNKLYGRTWYDFNESDYWGQGTQVTVSS |
| 2.3 nM |  | PSMA.279 (bispecific antibody, V domains shown, TCE with CD3.23; also called AC3488) VH: QVQLVESGGGVVQPGRSLRLSCAASGRTFGIYVMGWFRQAPGKEREFVGAISWSGSNRKVSDSVKGRFTISRDNSKNTLYLQMNSLRAEDTAVYYCAASNRMYGRTWYDFNESDYWGQGTQVTVSS |
| 3.9 nM |  | PSMA.278 (bispecific antibody, V domains shown, TCE with CD3.23; also called AC3487) VH: QVQLVESGGGVVQPGRSLRLSCAASGRTFGIYVWGWVRQAPGKEREFVGAISWSGSNRKVSDSVKGRFTISRDNSKNTLYLQMNSLRAEDTAVYYCAASNRMYGRTWYDFNESDYWGQGTQVTVSS |
| 131 nM |  | PSMA.268 (bispecific antibody, V domains shown, TCE with CD3.23; also called AC3477) VH: QVQLVESGGGVVQPGRSLRLSCAASGRTFGIYAMGWVRQAPGKEREFVGAISWSGSNRKVSDSVKGRFTISRDNSKNTLYLQMNSLRAEDTAVYYCAASNRTYGRTWYDFNESDYWGQGTQVTVSS |
| 5.5 nM |  | PSMA.269 (bispecific antibody, V domains shown, TCE with CD3.23; also called AC3478) VH: QVQLVESGGGVVQPGRSLRLSCAASGRTFGIYVFGWVRQAPGKEREFVGAISWSGSNRKVSDSVKGRFTISRDNSKNTLYLQMNSLRAEDTAVYYCAASNRTYGRTWYDFNESDYWGQGTQVTVSS |
| 9.1 nM |  | PSMA.271 (bispecific antibody, V domains shown, TCE with CD3.23; also called AC3480) VH: QVQLVESGGGVVQPGRSLRLSCAASGRTFGIYVMGWFRQAPGKEREFVGAISWSGSNRKVSDSVKGRFTISRDNSKNTLYLQMNSLRAEDTAVYYCAASNRTYGRTWYDFNESDYWGQGTQVTVSS |
| 11.4 nM |  | PSMA.260 (bispecific antibody, V domains shown, TCE with CD3.23; also called AC3469) VH: QVQLVESGGGVVQPGRSLRLSCAASGRTFGIYAMGWVRQAPGKEREFVGAISWSGSNRKVSDSVKGRFTISRDNSKNTLYLQMNSLRAEDTAVYYCAASNKLYGRTWYDFNESDYWGQGTQVTVSS |
| 39.6 nM |  | PSMA.274 (bispecific antibody, V domains shown, TCE with CD3.23; also called AC3483) VH: QVQLVESGGGVVQPGRSLRLSCAASGRTFGIYVWGWVRQAPGKEREFVAAMSWSGSNRKVSDSVKGRFTISRDNSKNTLYLQMNSLRAEDTAVYYCAASNRTYGRTWYDFNESDYWGQGTQVTVSS |
|  | no binding | PSMA.286 (bispecific antibody, V domains shown, TCE with CD3.23; also called AC3495) VH: QVQLVESGGGVVQPGRSLRLSCAASGRTFGIYVWGWVRQAPGKEREFVGAISWSGSNRKVSDSVKGRFTISRDNSKNTLYLQMNSLRAEDTAVYYCAASNRLYGRTWYDFNESDYWGQGTQVTVSS |
| 3.1 nM |  | PSMA.285 (bispecific antibody, V domains shown, TCE with CD3.23; also called AC3494) VH: QVQLVESGGGVVQPGRSLRLSCAASGRTFGIYVFGWVRQAPGKEREFVGAISWSGSNRKVSDSVKGRFTISRDNSKNTLYLQMNSLRAEDTAVYYCAASNRLYGRTWYDFNESDYWGQGTQVTVSS |
| 2.3 nM |  | PSMA.257 (bispecific antibody, V domains shown, TCE with CD3.23; also called AC3468) VH: QVQLVESGGGVVQPGRSLRLSCAASGRTFGIYVMGWYRQAPGKEREFVAAISWSGSNRKVSDSVKGRFTISRDNSKNTLYLQMNSLRAEDTAVYYCAASNRLYGRTWYDFNESDYWGQGTQVTVSS |
| 3.4 nM |  | PSMA.256 (bispecific antibody, V domains shown, TCE with CD3.23; also called AC3467) VH: QVQLVESGGGVVQPGRSLRLSCAASGRTFGIYVMGWYRQAPGKEREFVAAMSWSGSNRKVSDSVKGRFTISRDNSKNTLYLQMNSLRAEDTAVYYCAASNRLYGRTWYDFNESDYWGQGTQVTVSS |

Source: patent US20260055205A1 (published 2026)
